From patent US20110117099A1

Biological target: type I Collagen (Sigma)
Assay: solid phase assay, biotinylated rBSdrF titrated on collagen-coated wells

## purified recombinant B domain of SdrF (rBSdrF), N-terminal His tag (from UniProt Q9KI14 678-1128)
  concentration at which maximum binding occurs: 20 ng/mL
